Data reported in the supplement of paper PMC12667976.
± gives the standard error.

B1: library; numbered along this chain (parent)
chain: MATDAALRRLLRLHRTEIAVAVDSAFPLLHALADHDVVPEDKFQETLHLKEKEGCPQAFHALLSWLLTQDSTAILDFWRVLFKDYNLERYGRLQPILDSFPKDVDLSQPRKGRKPPAVPKALVPPPRLPTKRKASEEARAAAPAALTPRGTASPGSQLKAKPPKKPESSAEQQRLPLGNGIQTMSASVQRAVAMSSGDVPGARGAVEGILIQQVFESGGSKKCIQVGGEFYTPSKFEDSGSGKNKARSSSGPKPLVRAKGAQGAAPGGGEARLGQQGSVPAPLALPSDPQLHQKNEDECAVCRDGGELICCDGCPRAFHLACLSPPLREIPSGTWRCSSCLQATVQEVQPRAEEPRPQEPPVETPLPPGLRSAGEEVRGPPGEPLAGMDTTLVYKHLPAPPSAAPLPGLDSSALHPLLCVGPEGQQNLAPGARCGVCGDGTDVLRCTHCAAAFHWRCHFPAGTSRPGTGLRCRSCSGDVTPAPVEGVLAPSPARLAPGPAKDDTASHEPALHRDDLESLLSEHTFDGILQWAIQSMARPAAPFPS

Variants of: B1
Test: AIRE transcriptional activation functional score (insulin promoter-GFP; nonsense median 0, synonymous median 1) (normalised score); higher = higher AIRE activity (more reporter activation)
Conditions: with insulin promoter-GFP reporter in HEK293
Method: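 Deep mutational scan of full-length human AIRE (codon-optimized cDNA, DT-POPCode NNN libraries over three regions) integrated at a Bxb1 landing pad in HEK293 cells carrying an insulin core promoter-GFP reporter at a Flp-In site. Cells were sorted for the top 10% GFP about 14 days after transfection. Variant frequency log-ratios (select vs non-select, TileSeq) were rescaled so that the nonsense median is 0 and the synonymous median is 1, then averaged over biological replicates.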

Variant | AIRE transcriptional activation functional score
L28T | 0.6 ± 0.27
S339R | 1.11 ± 0.2
S339E | 0.838 ± 0.15
H512N | 1.02 ± 0.17
H512Y | 0.777 ± 0.082
A205D | 0.746 ± 0.27
A205W | -0.461 ± 0.063
P405I | 1.59 ± 0.059
S71E | 1.17 ± 0.4
S71Y | 1.52 ± 1.2
S71P | -0.532 ± 0.41
H319C | 1.43 ± 0.15
D105L | 0.724 ± 0.18
P365S | 1.14 ± 0.16
P365I | 0.733 ± 0.41
F59I | 0.997 ± 0.48
H523V | 0.847 ± 0.12
G379D | 1.24 ± 0.21
R257I | 0.805 ± 0.25
Q157A | 1.13 ± 0.74
P129T | 1.17 ± 0.79
G435S | 0.74 ± 0.35
P416Q | 1.49 ± 0.21
Q225E | 1.13 ± 0.34

Variant | AIRE transcriptional activation functional score
C322H | 1.5 ± 0.083
R132F | -0.0252 ± 0.14
E353M | 1.19 ± 0.042
V256P | 0.878 ± 0.24
V22L | 0.487 ± 0.64
L106M | 0.0877 ± 0.2
A432L | 0.822 ± 0.4
A432Q | 0.748 ± 0.18
G178F | 1.08 ± 0.051
V38F | -0.138 ± 0.2
D515C | 0.503 ± 0.096
T441E | 0.676 ± 0.27
I181C | 0.211 ± 0.088
P492K | 0.595 ± 0.036
P492R | 0.779 ± 0.22
A541M | 0.557 ± 0.35
P325Y | 1.18 ± 0.32
D4E | 1.26 ± 0.14
D4A | 0.529 ± 0.99
F100L | 0.191 ± 0.33
G112F | 1.03 ± 0.43
Q172G | 0.609 ± 0.35
A202C | 1.39 ± 0.17
A202N | 1.59 ± 0.25

Variant | AIRE transcriptional activation functional score
A202G | 0.818 ± 0.18
A186R | 0.648 ± 0.28
L428A | 1.08 ± 0.081
G197M | 0.448 ± 0.058
H507R | 0.823 ± 0.24
H507V | 1.12 ± 0.22
H507K | 0.802 ± 0.2
Q44P | -0.185 ± 0.28
T232H | 0.729 ± 0.14
S248G | 1.13 ± 0.26
P286C | 0.46 ± 0.43
E216A | 0.655 ± 0.34
E216G | 1.09 ± 0.12
S518L | 1.04 ± 0.13
E88G | -0.0199 ± 0.27
L273E | 0.817 ± 0.051
A73S | 0.179 ± 0.56
K395F | 0.828 ± 0.12
L444F | 0.489 ± 0.068
E359S | 1.27 ± 0.24
K221I | -0.82 ± 0.34
G240I | 0.539 ± 0.24
G240F | 0.96 ± 0.081
G240N | 1.96 ± 0.076

Variant | AIRE transcriptional activation functional score
A461P | 1.19 ± 0.2
R473Q | 0.968 ± 0.13
K111C | 1.44 ± 0.27
K111Y | 1.29 ± 0.15
F43W | 0.0722 ± 0.093
F43A | -0.325 ± 0.25
S156E | 0.377 ± 0.46
S156H | 0.981 ± 0.23
D23T | -0.174 ± 0.085
W78V | -0.0156 ± 0.41
D103G | 1.32 ± 0.3
D103V | 0.319 ± 0.28
Q276F | 1.05 ± 0.044
P490F | 0.986 ± 0.48
P490K | 1.17 ± 0.029
P162E | 0.27 ± 0.49
E237T | 0.952 ± 0.1
E237F | -1.02 ± 0.4
E237L | 1.16 ± 0.34
R190Y | 0.797 ± 0.12
V362M | -0.739 ± 0.14
S168D | 0.307 ± 0.097
L47G | 0.313 ± 0.19
R92H | 0.298 ± 0.23

Variant | AIRE transcriptional activation functional score
A19V | -0.0384 ± 0.33
H30G | 0.000219 ± 0.62
E376A | 0.899 ± 0.079
E376F | 0.443 ± 0.22
D84Y | 0.473 ± 0.34
D84W | 1.68 ± 0.046
D84M | -0.309 ± 0.14
P381W | 0.42 ± 0.044
S24R | 0.239 ± 0.83
G431Q | 0.86 ± 0.29
K120V | 1.01 ± 0.28
A386E | 1.21 ± 0.083
G150N | 0.149 ± 0.088
L158D | 0.772 ± 0.62
L49I | -0.275 ± 1.4
G486W | 1.49 ± 0.017
L146T | 1.09 ± 0.68
L146G | 0.344 ± 0.47
T391S | 0.957 ± 0.28
R113P | 0.537 ± 0.78
A505E | 0.669 ± 0.15
A500D | 1.19 ± 0.13
S332K | 0.518 ± 0.046
L320S | 0.896 ± 0.27

Variant | AIRE transcriptional activation functional score
L320A | 1.19 ± 0.23
P460N | 1.07 ± 0.14
D288G | 1.14 ± 0.28
S521A | 0.824 ± 0.41
A142C | 1.03 ± 0.1
A142L | 1.17 ± 0.36
A142G | 1.29 ± 0.26
A317E | 1.37 ± 0.33
S474H | 0.593 ± 0.069
L128N | 1.02 ± 0.23
L128A | 1.19 ± 0.6
E207C | 0.532 ± 0.32
A451N | 0.582 ± 0.09
C437A | 0.0947 ± 0.07
C437P | 0.172 ± 0.16
L385V | 0.955 ± 0.15
D198K | 0.684 ± 0.19
E229H | 0.361 ± 0.094
R8S | 0.281 ± 0.48
R8Q | -1.39 ± 0.14
P407K | 0.865 ± 0.052
P407M | 1.6 ± 0.12
E423Y | 1.38 ± 0.081
M184P | 0.519 ± 0.19

Variant | AIRE transcriptional activation functional score
G498S | 0.556 ± 0.34
T16A | -0.419 ± 0.84
T16Y | 0.309 ± 0.36
S372Y | 1.25 ± 0.4
A140K | 0.768 ± 0.51
S506M | 0.671 ± 0.15
D503N | 0.852 ± 0.06
G424M | 0.308 ± 0.09
R378N | 1.28 ± 0.11
I528Y | 0.65 ± 0.036
W335H | 0.428 ± 0.28
P252A | 1.02 ± 0.24
T334R | 1.06 ± 0.42
C419L | 1.33 ± 0.39
C419A | 0.69 ± 0.37
G387K | 0.344 ± 0.13
A284Y | 1.32 ± 0.18
A284K | 0.964 ± 0.18
K253Y | 0.499 ± 0.15
G201T | 0.924 ± 0.23
A246W | 1.47 ± 0.047
R356M | 1.16 ± 0.041
R356F | 1.15 ± 0.11
